Laboratory results reported in patent publication US20230134571A1 (INTERNATIONAL AIDS VACCINE INITIATIVE, published 2023).

Assays:
Assay in all cases: cell-based or functional assay
[1] = biological target: HIV Env, isolate SC05_8C11_2344 (HIV)
[2] = biological target: HIV Env, isolate 1012_11_TC21_3257 (HIV)
[3] = biological target: HIV Env, isolate 6240_08_TA5_4622 (HIV)
[4] = biological target: HIV Env, isolate HIV-16055-2.3 (HIV)
[5] = biological target: HIV Env, isolate X1193_C1 (HIV)
[6] = biological target: HIV Env, isolate QH0692.42 (HIV)
[7] = biological target: HIV Env, isolate Ce2010_F5 (HIV)
HIV Env, isolate 249MB10 = HIV Env, isolate 249MB10 (HIV)
[8] = biological target: HIV Env, isolate 1394C9G1(Rev-) (HIV)
HIV Env, isolate 6535.3 = HIV Env, isolate 6535.3 (HIV)
HIV Env, isolate T278-50 = HIV Env, isolate T278-50 (HIV)
[9] = biological target: HIV Env, isolate Du172.17 (HIV)
[10] = biological target: HIV Env, isolate 62357_14_D3_4589 (HIV)
[11] = biological target: HIV Env, isolate 3817.v2.c59 (HIV)
HIV Env, isolate CNE17 = HIV Env, isolate CNE17 (HIV)
HIV Env, isolate CNE58 = HIV Env, isolate CNE58 (HIV)
[12] = biological target: HIV Env, isolate ZM249M.PL1 (HIV)
HIV Env, isolate Du422.1 = HIV Env, isolate Du422.1 (HIV)
[13] = biological target: HIV Env, isolate WEAU_d15_410_5017 (HIV)
[14] = biological target: HIV Env, isolate P0402_C2_11 (HIV)
[15] = biological target: HIV Env, isolate CAP45.2.00.G3 (HIV)

| Binder | IC80 (µg/ml) with constrains [1] [µg/mL] | IC80 (µg/ml) with constrains [2] [µg/mL] | IC80 (µg/ml) with constrains [3] [µg/mL] | IC80 (µg/ml) with constrains [4] [µg/mL] | IC80 (µg/ml) with constrains [5] [µg/mL] | IC80 (µg/ml) with constrains [6] [µg/mL] | IC80 (µg/ml) with constrains [7] [µg/mL] | IC80 (µg/ml) with constrains (HIV Env, isolate 249MB10) [µg/mL] | IC80 (µg/ml) with constrains [8] [µg/mL] | IC80 (µg/ml) with constrains (HIV Env, isolate 6535.3) [µg/mL] | IC80 (µg/ml) with constrains (HIV Env, isolate T278-50) [µg/mL] | IC80 (µg/ml) with constrains [9] [µg/mL] | IC80 (µg/ml) with constrains [10] [µg/mL] | IC80 (µg/ml) with constrains [11] [µg/mL] | IC80 (µg/ml) with constrains (HIV Env, isolate CNE17) [µg/mL] | IC80 (µg/ml) with constrains (HIV Env, isolate CNE58) [µg/mL] | IC80 (µg/ml) with constrains [12] [µg/mL] | IC80 (µg/ml) with constrains (HIV Env, isolate Du422.1) [µg/mL] | IC80 (µg/ml) with constrains [13] [µg/mL] | IC80 (µg/ml) with constrains [14] [µg/mL] | other results |
| --- | --- | --- | --- | --- | --- | --- | --- | --- | --- | --- | --- | --- | --- | --- | --- | --- | --- | --- | --- | --- | --- |
| ePGDM9 (antibody, V domains shown) VH: QAQLVQSGPEVRKPGTSVKVSCKNPGNTLTTYDLHWVRQVPGQGLQWMGWISHEGDKKVIVERFKAKVTIDWDRSTNTAYLQLSGLTSEDTAVYYCAKGSKHRLRDYALYDEDGALNWAVDVDYLANLEFWGQGTAVTVSS VL: DIVLTQSPLSLSVTPGESASISCKSSQSLIHGDRNNYLAWYVQKPGRSPQLLIDLASERASGVPDRFSGSGSRKDFTLKISRVETEDVGTYYCMQGRESPWTFGQGTKVDIK | 4.25 | 0.167 | 6.6 | 0.006 | 0.158 | > 100 | > 100 | 0.028 | 0.005 | > 100 | 2.02 | 3.46 | 38 | 0.64 | 0.01 | 0.008 | 0.008 | 53.2 | 0.009 | 0.003 | IC80 (µg/ml) with constrains [15]: 0.005 µg/mL |
| ePGDM13 (antibody, V domains shown) VH: QAQLVQSGPEVRKPGTSVKVSCKNPGNTLTTYDLHWVRQVPGQGLQWMGWISHEGDKKVIVERFKAKVTIDWDRSTNTAYLQLSGLTSEDTAVYYCAKGSKHRLRDYALYDEDGALNWAVDVDYLANLEFWGQGTAVTVSS VL: DIVLTQSPLSLSVTPGESASISCKSSHSLQHGDRNNYLAWYVQKPGRSPQLLLDLASERASGVPDRFSGSGSEKDFTLKISRVETEDVGTYYCMQGRESPWTFGQGTKVDIK | 9.44 | 0.26 | 12.6 | 0.011 | 0.381 | > 100 | > 100 | 0.13 | 0.011 | > 100 | 6.4 | 6 | 69.5 | 55.9 | 0.031 | 0.014 | 0.056 | > 100 | 0.012 | 0.006 | IC80 (µg/ml) with constrains [15]: 0.007 µg/mL |
| ePGDM5 (antibody, V domains shown) VH: QAQLVQSGPEVRKPGTSVKVSCKNPGNTLTTYDLHWVRQVPGQGLQWMGWISHEGDKKVIVERFKAKVTIDWDRSTNTAYLQLSGLTSEDTAVYYCAKGSKHRLRDYALYDEDGALNWAVDVDYLANLEFWGQGTAVTVSS VL: DFVLTQSPLSLSVTPGESASISCKSDHSLQHGDRNNYLAWYVQKPGRSPQLLIDLASERASGVPDRFSGSGSRKDFTLKIDRVEAEDVGTYYCMQGRESPWTFGQGTKVDIK | 14.5 | 0.305 | 8.09 | 0.007 | 0.156 | > 100 | > 100 | 0.045 | 0.009 | > 100 | 4.23 | 5.98 | 39.9 | 0.929 | 0.028 | 0.015 | 0.138 | 34.6 | 0.003 | 0.015 | IC80 (µg/ml) with constrains [15]: 0.004 µg/mL |
